PMC9737104, “Effects of Molecular Crowding and Betaine on HSPB5 Interactions, with Target Proteins Differing in the Quaternary Structure and Aggregation Mechanism” (International Journal of Molecular Sciences, 2022)

Molecular target: the molecule itself
Experiment: AUC; sedimentation velocity at 25 °C, 48,000 rpm; GDH 0.2 mg/mL with HSPB5 0.05 mg/mL, 25 mg/mL PEG and 1 M betaine, heated 10 min at 50 °C before the run; 0.1 M Na-phosphate pH 7.6, 0.01 M NaCl

B1: bovine liver glutamate dehydrogenase, heated 10 min at 50 °C (enzyme)
chain: not shown
notes: bovine liver glutamate dehydrogenase [EC 1.4.1.2-4], homohexamer of about 360 kDa; also called GDH; source: bought: Sigma-Aldrich (suspension in ammonium sulfate), desalted on a PD-10 column
stoichiometry N: 6
